Reference: patent US20220098319A1 (SHANGHAI PHARMAEXPLORER, published 2022)
Where a chain is given by its changes, count along the chain named.

T1: human CD73 (full length, on transfected CHOK1 cells) (human, UniProt P21589 27-549)
T1 sequence (looked up): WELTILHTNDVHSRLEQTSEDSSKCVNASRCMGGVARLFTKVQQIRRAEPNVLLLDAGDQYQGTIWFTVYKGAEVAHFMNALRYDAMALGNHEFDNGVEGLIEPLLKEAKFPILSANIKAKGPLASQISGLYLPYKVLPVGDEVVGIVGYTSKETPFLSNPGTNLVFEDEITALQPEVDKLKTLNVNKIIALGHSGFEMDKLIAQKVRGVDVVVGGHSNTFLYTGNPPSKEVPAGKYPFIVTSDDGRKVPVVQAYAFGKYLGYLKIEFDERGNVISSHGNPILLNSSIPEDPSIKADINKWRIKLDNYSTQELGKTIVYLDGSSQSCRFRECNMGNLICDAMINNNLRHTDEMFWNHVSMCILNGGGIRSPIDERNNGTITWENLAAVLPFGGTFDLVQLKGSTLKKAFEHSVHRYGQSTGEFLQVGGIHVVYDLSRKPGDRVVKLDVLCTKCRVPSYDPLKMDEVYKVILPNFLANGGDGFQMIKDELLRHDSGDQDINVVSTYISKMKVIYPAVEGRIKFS

T2: murine CD73 (on transfected CHOK1 cells) (mouse, UniProt Q61503 29-551)
T2 construct: whole, on cells; also called CHOK1-mCD73; mCD73
T2 sequence (looked up): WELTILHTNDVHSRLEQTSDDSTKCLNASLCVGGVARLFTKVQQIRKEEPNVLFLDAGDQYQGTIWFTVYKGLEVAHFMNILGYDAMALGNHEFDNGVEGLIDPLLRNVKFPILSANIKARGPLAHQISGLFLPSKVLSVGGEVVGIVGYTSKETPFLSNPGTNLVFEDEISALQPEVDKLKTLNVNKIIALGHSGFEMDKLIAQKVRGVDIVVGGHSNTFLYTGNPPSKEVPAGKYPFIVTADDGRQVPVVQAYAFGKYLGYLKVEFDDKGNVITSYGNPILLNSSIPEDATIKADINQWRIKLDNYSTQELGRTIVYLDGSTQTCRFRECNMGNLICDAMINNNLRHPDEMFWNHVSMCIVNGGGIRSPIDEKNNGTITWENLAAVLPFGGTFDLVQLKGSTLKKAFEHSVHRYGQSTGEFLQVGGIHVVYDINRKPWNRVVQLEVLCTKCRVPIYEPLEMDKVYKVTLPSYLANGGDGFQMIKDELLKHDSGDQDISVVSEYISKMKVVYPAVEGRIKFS

T3: cynomolgus monkey CD73 (on transfected CHOK1 cells) (cynomolgus monkey, UniProt A0A2K5V5U7 27-549)
T3 construct: whole, on cells; also called CHOK1-cCD73; CHOK1-CCD73
T3 sequence: T1 sequence (looked up) with M199T, T350A, V466I

B1: mAb042 (clone 77B9A3), murine anti-CD73 antibody (antibody, V domains shown)
VH: QVQLQQSGAGLVKPGASVKLSCKASGYTFTNYWMHWVKQRPGQGLEWIGMIHPNSGSTNNNEKFKNKATLTVDKSSNTAYMQLSSLTSEDSAVYYCARFFFGGYPHYYALDYWGQGTSVTVSS
VL: DIVMTQSQKFMSTTVGDRVSITCKASQNVGTAVAWYQQKPGQSPKLLIYSASDRYTGVPDRLTGSGSGTDFTLTISNVQSEDLADYFCQQYSSFPLFTFGSGTKLVIQ
notes: Purified from hybridoma supernatant
B2: mAb034 (clone 60G1C8), murine anti-CD73 antibody (antibody, V domains shown)
VH: DVQLQESGPGLVKPSQSLSLTCSVTGYSITSRYYWNWIRQFPGNKLEWMGYMTYDGTNNYNPSLTNRISITRDTSKNQFFLKLNSVTAEDTATYFCARGGWDPFDYWGQGTTLTVSS
VL: DIQMTQSPAALSASVGETVTITCRASDNIYSYLAWYQQKQGKCPQLLVKNAKTLAEGVPSRFSGSGSGTQFSLRINSLQPDDFGTYYCQHYYGTPLTFGAGTKLELK
notes: as for B1
B3: mAb020 (clone 24D6B4), murine anti-CD73 antibody (antibody, V domains shown)
VH: EVQLQQSGPELVKPGASVKIPCKASGYTFTDYNMDWVKQRHGKSLEWIGDINPNNGGTVYNQKFKGKATLTVDKSSNTAYMELRSLTSEDTAVYYCARISGTGYWYFDVWGTGTTVTVSS
VL: DIQMTQSPASLSVSVGETVTITCRASENIYSNLAWYQQKQGKSPQLLVYGATNLADGVPSRFSGSDSGTQYSLKINSLQSEDFGSYYCQHFWGTPWTFGGGTKLEIK
notes: as for B1
B4: mAb038 (clone 69C9E12), murine anti-CD73 antibody (antibody, V domains shown)
VH: QVQLQQPGTELVNPGASVKLSCKASGYTFTSYWMHWVKQRPGQGLEWIGNINPSNGGTHYNEKFNNKATLTVDKSSSTAYMQLSSLTSEDSAVFYCARGDYAYDWYFTVWGTGTTVTVSS
VL: DIVLTQSPASLAVSLGQRAIISCKASQSVSFAGTGLMHWYQQKPGQQPKLLIYRVSNLEAGIPTRFSGSGSRTDFTLNIHPVEEDDAATYYCQQNREFPWTFGGGTKLEIK
notes: as for B1
B5: mAb041 (clone 71E10B3), murine anti-CD73 antibody (antibody, V domains shown)
VH: QVQLQQPGTELVKPGASVKLSCKASGYTFTSYWMHWVKQRPGQGLEWIGNINPSNGGTNYNQKFKSKATLTVDKSSNTASMQLSSLTSEDSAVYYCARGDYGYDWYLDVWGTGTTVTVSS
VL: B4 VL with T34P, G35S, V55T, I62V, R72G
notes: as for B1
B6: mAb044 (clone 80H7D6), murine anti-CD73 antibody (antibody, V domains shown)
VH: EVKLVESGGGLVQPGGSLRLSCAASGFTFTDYYMSWVRQPPGKALEWLGFIRNKADGSTTEYSASVKGRFTISRDNSQSILYLQMNALRPEDSATYYCTRSPIYFDNWYFDVWGTGTTVTVSS
VL: DIVMSQSPSSLAVSVGEKVTMTCKSSQSLLYSNNQKNYLAWYQQKPGQSPKLLIYWASTRESGVPDRFTGSGSGTDFTLTLSSVKAEDLAVYYCQQYYSYPFTFGSGTKLEIK
notes: as for B1
B7: mAb065 (clone 125A4E10), murine anti-CD73 antibody (antibody, V domains shown)
VH: EVQLQQSGPELVKPGASVKISCKASGYTFTDYYMNWVKQSHGKSLEWIGNINPNNGDTNYNQKFKGKATLTVDKSSSTASMELRSLTSEDSAVYYCANSGYYYFDYWGQGTTLTVSS
VL: DIVMTQSPSSLTVTAGEKVTMSCKSSQSLLNSGNQKNYLTWYQQKPGQPPKVLIYWASTRESGVPDRFTGSGSGTDFTLTISSVQAEDLAVYYCQNDYSYPPTFGGGTNLEIK
notes: as for B1
B8: mAb036 (clone 66H6C12), murine anti-CD73 antibody (antibody, V domains shown)
VH: QVQLQQSGAEVVKPGASVKISCKASGYVFSSYWINWVKQRPGKGLEWIGKIFPGNGDTDYNGNFKGKATLTADKSSSTAYMQLSSLTSEDSAVYFCAGFADWGQGTLVTVSA
VL: DIQMTQSPSSLSASLGERVSLTCRASQDIGERLIWLQQEPDGTFKRLIYATSSLDSGVPKRFSGSSSGSDYSLTISRLESEDFVDYYCLQYASSPYTFGGGTKLEIK
notes: as for B1

Key:
[1] = target: T1, human CD73 (full length, on transfected …); test: cell-based or functional assay
[2] = target: T2, murine CD73 (on transfected CHOK1 cells); test: FACS on CHOK1-mCD73 cells
[3] = target: T1, human CD73 (full length, on transfected …); test: FACS on CHOK1-hCD73 cells
Protocol: The titration binding curve was produced by the following method:
The CHOK1 stable cell line transfected with human CD73 was expanded to a 75-90% confluence in a T-75 cell culture flask. The medium was aspirated, washed 1-2 times with PBS, and then treated with trypsin (Tryple express: Life technology) and cells were collected. The cells were washed with PBS buffer for 1-2 times. After counted, the cells were diluted with PBS to 1-2×10⁶ cells per ml, added with 1% fetal bovine serum (FBS) blocking solution, incubated on ice for 20-30 minutes, and then washed twice with HBSS by centrifugation. The collected cells were suspended with FACS buffer (PBS+2% FBS) to 2×10⁶ cells/ml, added to a 96-well FACS reaction plate at 100 microliters per well, and centrifuged at 300 g for 5 minutes to discard the supernatant. Anti-CD73 antibody was prepared with blocking solution to an initial concentration of 10 ug/ml and serially diluted at 8 points. 100 microliter per well of that antibody sample to be tested were added and incubated at 4° C. for 1-2 hours. […] The plate was washed 2-3 times with FACS buffer by centrifugation, added with 100 μl fixative solution (4% Paraformaldehyde) per well to suspend the cells. 5-10 minutes later, it was washed 1-2 times with FACS buffer by centrifugation. The cells were suspended with 100 microliters of FACS buffer, FACS (FACSCalibur, BD) was used for detection and the results were analyzed, as shown in FIG. 1 and Table 4.

[4] = target: T3, cynomolgus monkey CD73 (on transfected …); test: FACS on CHOK1-cCD73 cells

Binder | Enzyme activity blocking assay, IC50 [1] | Enzyme activity blocking assay, MAX % inhibition [1] | binding result [2] | EC50 [3] | MAX MFI [3] | EC50 [4] | MAX MFI [4]
B1 | 0.1 nM | 47.9% | no binding (tested: 10 ug/ml initial concentration) | > 10 nM | 13900 MFI | 3.9 nM | 8770 MFI
B2 | 0.1 nM | 73.7% | no binding (tested: 10 ug/ml initial concentration) | > 10 nM | 5820 MFI | 0.2 nM | 3210 MFI
B3 | 0.1 nM | 63% | no binding (tested: 10 ug/ml initial concentration) | 1.8 nM | 7540 MFI | 3.4 nM | 9960 MFI
B4 | 1 nM | 53.3% | no binding (tested: 10 ug/ml initial concentration) | 0.4 nM | 5230 MFI | 0.3 nM | 7400 MFI
B5 | 4 nM | 35.7% | no binding (tested: 10 ug/ml initial concentration) | 2.9 nM | 8160 MFI | 1.9 nM | 9570 MFI
B6 | 0.5 nM | 53.5% | no binding (tested: 10 ug/ml initial concentration) | 1.6 nM | 7540 MFI | 3.4 nM | 12300 MFI
B7 | 0.3 nM | 56.4% | no binding (tested: 10 ug/ml initial concentration) | 1.1 nM | 4650 MFI | 2.5 nM | 3250 MFI
B8 | 0.2 nM | 72.3% | no binding (tested: 10 ug/ml initial concentration) | 0.3 nM | 5290 MFI | 0.9 nM | 7490 MFI
